Where a chain is given by its changes, count along the chain named. Names and notes keep the numbering of the source.
What was measured:
Assay type in all cases: biochemical
[1] = Validation of generalist properties: oxidation of imatinib by lyophilized P450-BM3 variant, UPLC-MS; conditions: [Imatinib] = 1 mM; for TON: TON = [substrate]*% conversion/[P450]; for FIOPC (B02): fold improvement over parent MCYP-P1.2-B02; for FIOPC (D06): fold improvement over parent MCYP-P1.2-D06
In short: (§1)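 Lyophilized lysate of E. coli-expressed P450-BM3 variant (stock standardized to 12 μM heme) was incubated 24 h at 30 °C with 1 or 2 mM substrate, 1.0 mM NADP+, 25 mM glucose, 0.5 mg/mL glucose dehydrogenase and 5% DMSO in 100 mM potassium phosphate. Acetonitrile-quenched samples were analyzed by UPLC-MS (positive ESI).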

[2] = Validation of generalist properties: oxidation of diclofenac by lyophilized P450-BM3 variant, UPLC-MS; conditions: [Diclofenac] = 1 mM; for TON: TON = [substrate]*% conversion/[P450]; for FIOPC (B12): fold improvement over parent MCYP-P1.2-B12; for FIOPC (D06): fold improvement over parent MCYP-P1.2-D06
In short: as §1

[3] = Validation of generalist properties: oxidation of loratadine by lyophilized P450-BM3 variant, UPLC-MS; conditions: [Loratadine] = 1 mM; for TON: TON = [substrate]*% conversion/[P450]; for FIOPC (B12): fold improvement over parent MCYP-P1.2-B12; for FIOPC (D06): fold improvement over parent MCYP-P1.2-D06
In short: as §1

[4] = Validation of generalist properties: oxidation of gefitinib by lyophilized P450-BM3 variant, UPLC-MS; conditions: [Gefitinib] = 1 mM; for TON: TON = [substrate]*% conversion/[P450]; for FIOPC (B12): fold improvement over parent MCYP-P1.2-B12; for FIOPC (D06): fold improvement over parent MCYP-P1.2-D06
In short: as §1

B1: SEQ ID NO: 12: P450-BM3 parental backbone from the commercially available MCYP panel (MCYP-0343; Codexis) (protein)
chain: MTIKEMPQPKTFGELKNLPLLNTDKPVQALMKIADELGEIFKFEAPGCVTRYLSSQRLIKEACDESRFDKNLSQALKFSRDFAGDGLFTSWTHEINWKKAHNILLPSFSQQAMKGYHAMMVDIAVQLVQKWERLNADEHIEVSEDMTRLTLDTIGLCGFNYRFNSFYRDQPHPFIISMVRALDEVMNKLQRANPDDPAYDENKRQCQEDIKVMNDLVDKIIADRKARGEQSDDLLTQMLNGKDPETGEPLDDGNISYQIITFLIAGHETTSGLLSFALYFLVKNPHVLQKVAEEAARVLVDPVPSYKQVKQLKYVGMVLNEALRLWPTAPAFSLYAKEDTVLGGEYPLEKGDEVMVLIPQLHRDKTIWGDDVEEFRPERFENPSAIPQHAFKPFGNGQRACIGQQFALHEATLVLGMMLKHFDFEDHTNYELDIKETLTLKPEGFVVKAKSKKIPLGGIPSPSTEQSAKKVRKKAENAHNTPLLVLYGSNMGTAEGTARDLADIAMSKGFAPQVATLDSHAGNLPREGAVLIVTASYNGHPPDNAKQFVDWLDQASADEVKGVRYSVFGCGDKNWATTYQKVPAFIDETLAAKGAENIADRGEADASDDFEGTYEEWREHMWSDVAAYFNLDIENSEDNKSTLSLQFVDSAADMPLAKMHGAFSTNVVASKELQQPGSARSTRHLEIELPKEASYQEGDHLGVIPRNYEGIVNRVTARFGLDASQQIRLEAEEEKLAHLPLAKTVSVEELLQYVELQDPVTRTQLRAMAAKTVCPPHKVELEALLEKQAYKEQVLAKRLTMLELLEKYPACEMKFSEFIALLPSIRPRYYSISSSPRVDEKQASITVSVVSGEAWSGYGEYKGIASNYLAELQEGDTITCFISTPQSEFTLPKDPETPLIMVGPGTGVAPFRGFVQARKQLKEQGQSLGEAHLYFGCRSPHEDYLYQEELENAQSEGIITLHTAFSRMPNQPKTYVQHVMEQDGKKLIELLDQGAHFYICGDGSQMAPAVEATLMKSYADVHQVSEADARLWLQQLEEKGRYAKDVWAG
modifications: P450_BM3
With B1 as the molecule, how does the “% Conv.” value [1] read?
The value was “++ (5.01-10.00)”.

And the TON [1]?
The TON was “‡‡ (1001-5000)”.

And the “% Conv.” value [2]?
Its value is “+ (0-5.00)”.

What about the TON [2] of the same molecule?
Its TON is “‡‡ (1001-5000)”.

And the “% Conv.” value [3]?
Its value is “+ (0-5.00)”.

And the TON [3]?
Its TON is “‡‡ (1001-5000)”.

What about the “% Conv.” value [4] of the same molecule?
Its value is “+ (0-5.00)”.

What about the TON [4] of the same molecule?
The TON was “‡ (0-1000)”.

B2: Variant 4: P450-BM3 variant of SEQ ID NO: 10: K32R; C48S; Y52F; I95P; Q111R; L216Y; D232H; P347T; E349K; M491A; N574T; E619D; D722S (protein)
chain: MTIKEMPQPKTFGELKNLPLLNTDKPVQALMRIADELGEIFKFEAPGSVTRFLSSQRLIKEACDESRFDKNLSQALKFARDFAGDGLATSWTHEPNWKKAHNILLPSFSQRAMKGYHAMMVDIAVQLVQKWERLNADEHIEVSEDMTRLTLDTIGLCGFNYRFNSFYRDQPHPFIISMVRALDEVMNKLQRANPDDPAYDENKRQCQEDIKVMNDYVDKIIADRKARGEQSHDLLTQMLNGKDPETGEPLDDGNISYQIITFLIAGHETTSGLLSFALYFLVKNPHVLQKVAEEAARVLVDPVPSYKQVKQLKYVGMVLNEALRLWPTAPAFSLYAKEDTVLGGEYTLKKGDEVMVLIPQLHRDKTIWGDDVEEFRPERFENPSAIPQHAFKPFGNGQRACIGQQFALHEATLVLGMMLKHFDFEDHTNYELDIKETLTLKPEGFVVKAKSKKIPLGGIPSPSTEQSAKKVRKKAENAHNTPLLVLYGSNAGTAEGTARDLADIAMSKGFAPQVATLDSHAGNLPREGAVLIVTASYNGHPPDNAKQFVDWLDQASADEVKGVRYSVFGCGDKTWATTYQKVPAFIDETLAAKGAENIADRGEADASDDFEGTYEEWRDHMWSDVAAYFNLDIENSEDNKSTLSLQFVDSAADMPLAKMHGAFSTNVVASKELQQPGSARSTRHLEIELPKEASYQEGDHLGVIPRNYEGIVNRVTARFGLSASQQIRLEAEEEKLAHLPLAKTVSVEELLQYVELQDPVTRTQLRAMAAKTVCPPHKVELEALLEKQAYKEQVLAKRLTMLELLEKYPACEMKFSEFIALLPSIRPRYYSISSSPRVDEKQASITVSVVSGEAWSGYGEYKGIASNYLAELQEGDTITCFISTPQSEFTLPKDPETPLIMVGPGTGVAPFRGFVQARKQLKEQGQSLGEAHLYFGCRSPHEDYLYQEELENAQSEGIITLHTAFSRMPNQPKTYVQHVMEQDGKKLIELLDQGAHFYICGDGSQMAPAVEATLMKSYADVHQVSEADARLWLQQLEEKGRYAKDVWAG
modifications: P450_BM3
notes: C48S; Y52F; I95P; Q111R; L216Y; D232H; P347T; E349K; M491A; N574T; E619D; D722S
For B2, which “% Conv.” value [1] is on record?
Its value is “++++ (15.01-20.00)”.

And the TON [1]?
Its TON is “‡‡‡‡ (10000-50000)”.

What about the “FIOPC (B02)” value [1] of the same molecule?
The value was “*** (5.01-10.0)”.

What about the “% Conv.” value [2] of the same molecule?
The value was “++++ (15.01-20.00)”.

What about the TON [2] of the same molecule?
Its TON is “‡‡‡‡ (10000-50000)”.

And the “FIOPC (B12)” value [2]?
Its value is “* (0.0-3.0)”.

And the “% Conv.” value [3]?
Its value is “++++ (15.01-20.00)”.

And the TON [3]?
The TON was “‡‡‡‡ (10000-50000)”.

What about the “FIOPC (B12)” value [3] of the same molecule?
Its value is “* (0.0-3.0)”.

What about the “% Conv.” value [4] of the same molecule?
Its value is “++++ (15.01-20.00)”.

And the TON [4]?
Its TON is “‡‡‡‡ (10000-50000)”.

What about the “FIOPC (B12)” value [4] of the same molecule?
The value was “*** (5.01-10.0)”.

B3: Variant 13: P450-BM3 variant of SEQ ID NO: 12: K32R; C48S; Y52F; I95P; G115R; D232H; M491A; N574T; T577A; E619D; A627S; D722S (protein)
chain: B2 chain with A79S, A88F, R111Q, G115R, Y216L, T347P, K349E, T577A, A627S
modifications: P450_BM3
notes: C48S; Y52F; I95P; G115R; D232H; M491A; N574T; T577A; E619D; A627S; D722S
With B3 as the molecule, how does the “% Conv.” value [1] read?
Its value is “++++ (15.01-20.00)”.

What about the TON [1] of the same molecule?
Its TON is “‡‡‡‡ (10000-50000)”.

What about the “FIOPC (D06)” value [1] of the same molecule?
The value was “*** (5.01-10.0)”.

And the “% Conv.” value [2]?
Its value is “++++ (15.01-20.00)”.

And the TON [2]?
The TON was “‡‡‡ (5001-10000)”.

And the “FIOPC (D06)” value [2]?
The value was “*** (5.01-10.0)”.

What about the “% Conv.” value [3] of the same molecule?
The value was “+ (0-5.00)”.

And the TON [3]?
The TON was “‡‡ (1001-5000)”.

What about the “FIOPC (D06)” value [3] of the same molecule?
Its value is “* (0.0-3.0)”.

And the “% Conv.” value [4]?
Its value is “+ (0-5.00)”.

And the TON [4]?
The TON was “‡‡ (1001-5000)”.

And the “FIOPC (D06)” value [4]?
Its value is “**** (10.01-15.00)”.

B4: Variant 12: P450-BM3 variant of SEQ ID NO: 12: K32R; C48S; Y52F; I95P; Q111R; G115R; D232H; M491A; T577A; A627S; D722S (protein)
chain: B2 chain with A79S, A88F, G115R, Y216L, T347P, K349E, T574N, T577A, D619E, A627S
modifications: P450_BM3
notes: C48S; Y52F; I95P; Q111R; G115R; D232H; M491A; T577A; A627S; D722S
With B4 as the molecule, how does the “% Conv.” value [1] read?
Its value is “++++ (15.01-20.00)”.

What about the TON [1] of the same molecule?
Its TON is “‡‡‡‡ (10000-50000)”.

What about the “FIOPC (D06)” value [1] of the same molecule?
Its value is “*** (5.01-10.0)”.

What about the “% Conv.” value [2] of the same molecule?
The value was “+++ (10.01-15.00)”.

And the TON [2]?
Its TON is “‡‡‡ (5001-10000)”.

And the “FIOPC (D06)” value [2]?
The value was “** (3.01-5.0)”.

What about the “% Conv.” value [3] of the same molecule?
The value was “++ (5.01-10.00)”.

And the TON [3]?
Its TON is “‡‡ (1001-5000)”.

And the “FIOPC (D06)” value [3]?
Its value is “* (0.0-3.0)”.

And the “% Conv.” value [4]?
Its value is “+ (0-5.00)”.

And the TON [4]?
The TON was “‡ (0-1000)”.

And the “FIOPC (D06)” value [4]?
The value was “* (0.0-3.0)”.

B5: Variant 5: P450-BM3 variant of SEQ ID NO: 10: C48S; I95P; G115R; L216Y; S231R; D232H; M491A; N574T; T577A; E619D; D722S (protein)
chain: B2 chain with R32K, F52Y, R111Q, G115R, S231R, T347P, K349E, T577A
modifications: P450_BM3
notes: I95P; G115R; L216Y; S231R; D232H; M491A; N574T; T577A; E619D; D722S
With B5 as the molecule, how does the “% Conv.” value [1] read?
Its value is “++++ (15.01-20.00)”.

And the TON [1]?
Its TON is “‡‡‡‡ (10000-50000)”.

What about the “FIOPC (B02)” value [1] of the same molecule?
Its value is “*** (5.01-10.0)”.

What about the “% Conv.” value [2] of the same molecule?
Its value is “++++ (15.01-20.00)”.

What about the TON [2] of the same molecule?
The TON was “‡‡‡‡ (10000-50000)”.

What about the “FIOPC (B12)” value [2] of the same molecule?
The value was “* (0.0-3.0)”.

What about the “% Conv.” value [3] of the same molecule?
Its value is “++++ (15.01-20.00)”.

And the TON [3]?
The TON was “‡‡‡‡ (10000-50000)”.

And the “FIOPC (B12)” value [3]?
Its value is “* (0.0-3.0)”.

What about the “% Conv.” value [4] of the same molecule?
Its value is “++++ (15.01-20.00)”.

What about the TON [4] of the same molecule?
The TON was “‡‡‡‡ (10000-50000)”.

What about the “FIOPC (B12)” value [4] of the same molecule?
The value was “*** (5.01-10.0)”.
